Experimental data reported in article PMC11208146, “Molecular basis for transposase activation by a dedicated AAA+ ATPase” (Nature, 2024).

Target: IstA transposase, wild type, full length (IS5376, Geobacillus stearothermophilus) (Geobacillus stearothermophilus)
Test: cryo-EM structure; IstA pre-incubated with strand-transfer-complex DNA (3.3:1), then IstB E167Q (5:1 to IstA), 37 °C; 20 mM HEPES pH 7.5, 150 mM NaCl, 5 mM MgCl2, 1 mM ATP, 1 mM DTT; 3.6 Å

stoichiometry N: 4
Substance: IstA transposase, wild type, full length (IS5376, Geobacillus stearothermophilus) (enzyme)
